Legend:
[1] = biological target: CD3 (CD3/TCR complex) on CD4+ and CD8+ T cells of patients (human) (UniProt P07766); assay: flow cytometry of CD4+ T cells, free CD3 sites by biotinylated TRX4; Example 3 Cohort 3, 0.5 mg, end of infusion
[2] = biological target: CD3 (CD3/TCR complex) on CD4+ and CD8+ T cells of patients (human) (UniProt P07766); assay: flow cytometry of CD4+ T cells, free CD3 sites by biotinylated TRX4; Example 4 Cohort A, day after last infusion
[3] = biological target: CD3 (CD3/TCR complex) on CD4+ and CD8+ T cells of patients (human) (UniProt P07766); assay: flow cytometry of CD4+ T cells, free CD3 sites by biotinylated TRX4; Example 4 Cohort A*, 0.25 mg
[4] = biological target: CD3 (CD3/TCR complex) on CD4+ and CD8+ T cells of patients (human) (UniProt P07766); assay: flow cytometry of CD4+ T cells, anti-human IgG; Example 4 Cohort C, end of 1.0 mg infusion
[5] = biological target: CD3 (CD3/TCR complex) on CD4+ and CD8+ T cells of patients (human) (UniProt P07766); assay: flow cytometry of CD4+ T cells, anti-human IgG; Example 3 Cohort 2 (0.5 mg x3), end of infusion
[6] = biological target: CD3 (CD3/TCR complex) on CD4+ and CD8+ T cells of patients (human) (UniProt P07766); assay: flow cytometry of CD4+ T cells, free CD3 sites by biotinylated TRX4; Example 4 Cohort C, 0.3 mg
[7] = biological target: CD3 (CD3/TCR complex) on CD4+ and CD8+ T cells of patients (human) (UniProt P07766); assay: flow cytometry of CD4+ T cells, free CD3 sites by biotinylated TRX4; Example 3 Cohort 3, 0.1 mg
[8] = biological target: CD3 (CD3/TCR complex) on CD4+ and CD8+ T cells of patients (human) (UniProt P07766); assay: flow cytometry of CD4+ T cells, free CD3 sites by biotinylated TRX4; Example 4 Cohort A*, 0.1 mg
[9] = biological target: CD3 (CD3/TCR complex) on CD4+ and CD8+ T cells of patients (human) (UniProt P07766); assay: flow cytometry of CD4+ T cells, free CD3 sites by biotinylated TRX4; Example 4 Cohort A, 0.5 mg

UniProt P07766, sequence (P07766 23-207, chain 1 of 3): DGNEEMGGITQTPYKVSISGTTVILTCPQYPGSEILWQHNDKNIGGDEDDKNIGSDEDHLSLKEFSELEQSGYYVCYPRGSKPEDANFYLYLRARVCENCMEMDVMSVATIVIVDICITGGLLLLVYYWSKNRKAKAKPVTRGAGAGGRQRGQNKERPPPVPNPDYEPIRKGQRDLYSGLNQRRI
UniProt P07766, sequence (chain, as listed by the source, chain 2 of 3): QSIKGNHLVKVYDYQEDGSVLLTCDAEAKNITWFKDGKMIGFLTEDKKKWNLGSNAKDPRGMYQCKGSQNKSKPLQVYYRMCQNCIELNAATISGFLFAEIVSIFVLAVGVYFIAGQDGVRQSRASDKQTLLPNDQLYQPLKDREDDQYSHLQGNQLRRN
UniProt P07766, sequence (chain, as listed by the source, chain 3 of 3): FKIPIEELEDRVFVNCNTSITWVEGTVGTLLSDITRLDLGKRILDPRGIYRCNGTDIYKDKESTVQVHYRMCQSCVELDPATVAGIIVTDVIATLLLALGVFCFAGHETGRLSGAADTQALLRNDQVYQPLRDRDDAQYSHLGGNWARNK

percent saturation of CD3 [1]: 90%
percent saturation of CD3 [2]: 35%
percent saturation of CD3 [3]: 95%
cell-bound TRX4 (MESF of anti-human IgG) [4]: 750000 MESF units
cell-bound TRX4 (MESF of anti-human IgG) [5]: 600000 MESF units
percent saturation of CD3 [6]: 99%
percent saturation of CD3 [7]: 45%
percent saturation of CD3 [8]: 70%
percent saturation of CD3 [9]: 95%
Substance: TRX4 antibody

— patent US20090258001A1
